# Data from EP0665886B1 (COLD SPRING HARBOR LABORATORY, dated 2003).
# Target: T1, human cyclin D1 (human, UniProt P24385 1-295)
# T1 construct: Endogenous 35 kDa protein in co-immunoprecipitations; also called p35^cyclin D1; p35
# Assay: anti-cyclin D1 immunoprecipitation
# T1 sequence (P24385 whole entry): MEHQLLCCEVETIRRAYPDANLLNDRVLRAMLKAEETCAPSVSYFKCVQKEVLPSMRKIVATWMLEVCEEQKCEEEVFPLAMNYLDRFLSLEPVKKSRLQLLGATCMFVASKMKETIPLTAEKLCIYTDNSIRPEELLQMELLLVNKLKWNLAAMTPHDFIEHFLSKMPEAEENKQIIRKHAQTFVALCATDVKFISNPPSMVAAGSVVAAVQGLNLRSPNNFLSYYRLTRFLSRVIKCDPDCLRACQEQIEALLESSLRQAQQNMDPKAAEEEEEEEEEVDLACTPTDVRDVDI
row,share of cyclin D1-associated protein lost in RIPA buffer (0.1% SDS) against NP40 (0.5%) buffer [%],Molecule
1,> 90,p21 (polypeptide of 21 kDa apparent molecular weight)
2,> 90,"human CDK4 (enzyme, UniProt P11802 1-303, looked up, also called PSK-J3; p33^CDK4) MATSRYEPVAEIGVGAYGTVYKARDPHSGHFVALKSVRVPNGGGGGGGLPISTVREVALLRRLEAFEHPNVVRLMDVCATSRTDREIKVTLVFEHVDQDLRTYLDKAPPPGLPAETIKDLMRQFLRGLDFLHANCIVHRDLKPENILVTSGGTVKLADFGLARIYSYQMALTPVVVTLWYRAPEVLLQSTYATPVDMWSVGCIFAEMFRRKPLFCGNSEADQLGKIFDLIGLPPEDDWPRDVSLPRGAFPPRGPRPVQSVVPEMEESGAQLLLEMLTFNPHKRISAFRALQHSYLHKDEGNPE"
